Assay results as given in patent US20170355769A1 (AbbVie / Abbott, published 2017).
Numbering of substitutions follows the chain as printed.

T1: Human B7-H3-ECD (His tag) (human, UniProt Q5ZPR3 29-461)
T1 construct: SPR analyte; also called huB7-H3; soluble ECD of human B7-H3
T1 sequence: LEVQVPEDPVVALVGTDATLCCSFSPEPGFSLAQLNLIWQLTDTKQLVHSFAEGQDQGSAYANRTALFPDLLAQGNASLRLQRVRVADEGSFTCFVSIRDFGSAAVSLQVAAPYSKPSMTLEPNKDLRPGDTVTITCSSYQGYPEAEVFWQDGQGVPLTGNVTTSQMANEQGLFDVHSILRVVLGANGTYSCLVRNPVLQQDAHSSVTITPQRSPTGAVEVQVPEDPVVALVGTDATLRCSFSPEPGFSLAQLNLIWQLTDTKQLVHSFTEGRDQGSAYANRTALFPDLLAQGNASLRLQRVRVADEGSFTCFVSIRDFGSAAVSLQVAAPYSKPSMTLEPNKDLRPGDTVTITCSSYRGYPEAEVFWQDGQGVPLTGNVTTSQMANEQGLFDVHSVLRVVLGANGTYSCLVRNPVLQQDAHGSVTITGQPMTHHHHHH

T2: Cyno B7-H3-ECD (his tag) (cynomolgus)
T2 construct: SPR analyte; also called soluble ECD of cyno B7-H3
T2 chain: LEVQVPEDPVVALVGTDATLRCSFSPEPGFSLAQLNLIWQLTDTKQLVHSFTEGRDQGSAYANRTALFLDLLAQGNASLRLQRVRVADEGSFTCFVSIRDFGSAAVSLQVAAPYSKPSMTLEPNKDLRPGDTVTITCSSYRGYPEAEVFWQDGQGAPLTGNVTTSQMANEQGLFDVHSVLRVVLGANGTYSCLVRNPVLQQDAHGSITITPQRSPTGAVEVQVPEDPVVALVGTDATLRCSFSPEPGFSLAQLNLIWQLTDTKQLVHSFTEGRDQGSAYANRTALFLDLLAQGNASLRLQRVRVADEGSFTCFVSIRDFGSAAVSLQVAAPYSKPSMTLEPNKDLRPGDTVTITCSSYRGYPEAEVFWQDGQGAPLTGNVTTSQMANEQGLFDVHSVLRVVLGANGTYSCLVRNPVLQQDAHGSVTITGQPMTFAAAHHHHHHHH

T3: Mouse B7-H3 on cells (mouse, UniProt Q8VE98 29-316)
T3 construct: whole, on cells
T3 sequence (looked up): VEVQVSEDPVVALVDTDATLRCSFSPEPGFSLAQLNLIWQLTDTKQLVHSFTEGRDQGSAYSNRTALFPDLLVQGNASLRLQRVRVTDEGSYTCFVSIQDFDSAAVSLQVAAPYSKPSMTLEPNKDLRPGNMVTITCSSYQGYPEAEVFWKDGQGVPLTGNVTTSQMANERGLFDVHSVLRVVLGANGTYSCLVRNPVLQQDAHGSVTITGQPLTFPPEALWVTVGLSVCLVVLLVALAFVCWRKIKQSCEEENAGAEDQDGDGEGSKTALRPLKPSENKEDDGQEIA

T4: Human full length B7-H3 (human, UniProt Q5ZPR3 29-534)
T4 construct: On 3T12 fibroblasts expressing full length human B7-H3 or on NCI-H1650 cells; signal peptide residues 1-28 stated; also called huB7-H3; CD276
T4 sequence: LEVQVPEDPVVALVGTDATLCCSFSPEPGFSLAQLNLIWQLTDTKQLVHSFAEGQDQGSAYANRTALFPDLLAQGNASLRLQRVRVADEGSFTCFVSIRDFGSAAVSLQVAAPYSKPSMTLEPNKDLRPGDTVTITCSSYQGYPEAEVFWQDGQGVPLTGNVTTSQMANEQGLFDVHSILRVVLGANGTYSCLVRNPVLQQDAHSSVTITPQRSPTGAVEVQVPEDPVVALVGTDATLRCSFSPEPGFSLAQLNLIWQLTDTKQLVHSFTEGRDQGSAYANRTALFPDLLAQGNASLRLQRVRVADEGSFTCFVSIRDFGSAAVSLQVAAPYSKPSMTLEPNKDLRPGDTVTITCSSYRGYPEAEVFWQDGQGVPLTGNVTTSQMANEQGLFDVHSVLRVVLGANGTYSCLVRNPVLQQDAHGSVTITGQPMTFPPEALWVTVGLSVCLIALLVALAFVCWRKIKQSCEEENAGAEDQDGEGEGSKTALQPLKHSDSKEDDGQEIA

B1: Ab12 (antibody, mouse IgG1, V domains shown)
VH: EVQLVESGGGLVKPGGSLKLSCAASGFTFSSYAMSWVRQTPEKRLEWVATISSGTNYTYYPDSVKGRFTISRDNAKNTLYLQMTSLRSEDTAMYYCARQGRYSWIAYWGQGTLVTVSA
VL: DIVLTQSPASLAVSLGQRATISCRASKSVSTSDYSYMHWNQQKPGQPPKLLIYLASNLESGVPARFSGSGSGTDFTLNIHPVEEEDAATYYCQHSRELLTFGAGTKLELK
notes: mouse IgG1/k
B2: Ab10 (antibody, V domains shown)
VH: DVQLQESGPGLVKPSQSLSLTCTVTGYSITSDYAWNWIRQFPGNRLEWMGHINYSGITNYNPSLKSRISITRDTSKNQFFLQLYSVTTEDTATYFCARRSLFYYYGSSLYAMDYWGQGTSVTVSS
VL: DVVMTQSPFSLPVSLGDQASISCRSSQSLVHSNGNTYLHWYLQKPGQSPKLLIYKVSNRFSGVPDRFSGSGSGTDFTLKISRVEAEDLGVYFCSQSTHVPWTFGGGTKLEIK
notes: mouse IgG2b/k
B3: Ab3 (antibody, mouse IgG1, V domains shown)
VH: QVQLQQPGAELVKPGASVKLSCKASGYTFSSYWMHWVKQRPGQGLEWIGLIHPDSGSTNYNEMFKNKATLTVDRSSSTAYVQLSSLTSEDSAVYFCAGGGRLYFDYWGQGTTLTVSS
VL: B2 VL with S7T, F9L, N35D, H39R, S81T, W101Y
notes: mouse IgG1/k
B4: Ab2 (antibody, mouse IgG1, V domains shown)
VH: QVQLQQPGAELVKPGASVKLSCKASGYTFTSYWMHWVKQRPGQGLEWIGMIHPDSGTTNYNEKFRSKATLTVDKSSSTAYMQLSSLTSEDSAVYYCAVYYGSTYWYFDVWGTGTTVTVSS
VL: B2 VL with S7T, F9L, S20Y, S32I, L42R, V99F, W101F, G105S
notes: mouse IgG1/k
B5: Ab13 (antibody, mouse IgG1, V domains shown)
VH: DVQLQESGPDLVKPSQSLSLTCTVTGYSITSGYSWHWIRQFPGNKLEWMGYIHSSGSTNYNPSLKSRISINRDTSKNQFFLQLNSVTTEDTATYYCAGYDDYFEYWGQGTTLTVSS
VL: DIVMTQSQKFMSTSVGDRVSVTCKASQNVGFNVAWYQQKPGQSPKALIYSASYRYSGVPDRFTGSGSGTDFTLTISNVQSEDLAEYFCQQYNSYPFTFGSGTKLEIK
notes: mouse IgG1/k
B6: Ab16 (antibody, mouse IgG1, V domains shown)
VH: EVKLLESGGGLVQPGGSLKLSCAASGFDFSRYWMSWVRQAPGKGLEWIGEINPDSSTINYTPSLKDKFIISRDNAKNTLYLQMSKVRSEDTALYYCARPGFGNYIYAMDYWGQGTSVTVSS
VL: DIQMTQTTSSLSASLGDRVTINCRASQDISNFLNWYQQKPDGTVKLLIYYTSRLYLGVPSRFSGSGSGTDYSLTISNLEQEDIATYFCQQGNTLPPTFGGGTKLEIK
notes: mouse IgG1/k
B7: Ab6 (antibody, mouse IgG1, V domains shown)
VH: QVQLQQSGAELMKPGASVKISCKATGYTFSRYWIEWVKQRPGHGLEWIGEILPGSGSTNYNEKFKGKATFTADTSSNTAYMQVSSLTSEDSAVHYCARRGYGYVPYALDYWGQGTSVTVSS
VL: B6 VL with D1E, N22S, F32S, K45N, L56S, P96Y
notes: mouse IgG1/k
B8: Ab14 (antibody, mouse IgG1, V domains shown)
VH: EVKLVESGGGLVKPGGSLKLSCAASGFTFSSYGMSWVRQTPEKRLEWVATISGGGTNTYYPDSVEGRFTISRDNAKNFLYLQMSSLRSEDTALYYCARHYGSQTMDYWGQGTSVTVSS
VL: DIQMTQSPASLSASVGETVTITCRTSGNIHNYLTWYQQKQGKSPQLLVYNAKTLADGVPSRFSGSGSGTQFSLKINSLQPEDFGSYYCQHFWSIMWTFGGGTKLEIK
notes: mouse IgG1/k
B9: Ab5 (antibody, mouse IgG1, V domains shown)
VH: QVQLQQPGDELVKPGASVKLSCKTSGYTFTTDWMHWVKQRPGQGLEWIGMIHPNSGTTNYNEKFKSKAALTVDKSSSTACMQLSSLTSEDSAVYYCARSYWKWYFDVWGTGTTVTVSS
VL: QIVLTQSPAIMSASLGEEITLTCSASSSVSYMHWYQQKSGTSPKLLIYSTSNLASGVPSRFSGSGSGTFYSLTISSVEAEDSADYYCHQWTSYMYTFGGGTKLEIK
notes: mouse IgG1/k
B10: Ab11 (antibody, mouse IgG1, V domains shown)
VH: EVKLVESGGGLVQPGGSLRLSCATSGFTFTNYYMSWVRQPPGKALEWLGFIRNKANDYTTEYSASVKGRFTISRDNSQSILYLQMNTLRAEDSATYYCARESPGNPFAYWGQGTLVTVSA
VL: DIVMTQSPSSLTVTAGEKVTMTCKSSQSLLNSGTQKNFLTWYQQKPGQPPKLLIYWASTRESGVPDRFTGSGSGTDFTLTISSVQAEDLAVYFCQNDYIYPLTFGAGTKLELK
notes: mouse IgG1/k

Biological target: T1, Human B7-H3-ECD (His tag)
Experiment: SPR, mAb captured, ECD analyte

| Binder | Kd [nM] | koff [s⁻¹] | kon [M⁻¹ s⁻¹] |
| --- | --- | --- | --- |
| B1 | 6.7 | 0.00025 | 38000 |
| B2 | 4.6 | 0.00019 | 41000 |
| B3 | 19 | 0.01 | 520000 |
| B4 | 24 | 0.0029 | 120000 |
| B5 | 17 | 0.0058 | 330000 |
| B6 | 24 | 0.0032 | 140000 |
| B7 | 840 | 0.01 | 12000 |
| B8 | 13 | 0.0014 | 110000 |
| B9 | 9.2 | 0.012 | 1.3e+06 |
| B10 | 45 | 0.00089 | 20000 |

Biological target: T2, Cyno B7-H3-ECD (his tag)
Experiment: SPR, mAb captured, ECD analyte

| Binder | Kd [nM] | koff [s⁻¹] | kon [M⁻¹ s⁻¹] |
| --- | --- | --- | --- |
| B1 | ≤ 0.18 | ≤ 1e-05 | 55000 |
| B2 | 20 | 0.0042 | 200000 |
| B3 | 26 | 0.01 | 380000 |
| B4 | 50 | 0.011 | 230000 |
| B5 | 8.4 | 0.0037 | 440000 |
| B6 | 7.5 | 0.0056 | 750000 |
| B7 | 410 | 0.012 | 28000 |
| B8 | 4.3 | 0.003 | 690000 |
| B9 | 200 | 0.28 | 1.4e+06 |
| B10 | 2.6 | 7.2e-05 | 27000 |

Biological target: T5, Cynomolgous B7-H3 on cells (cynomolgus)
T5 construct: whole, on cells; also called cyB7-H3; cyno B7-H3
Experiment: FACS, 3T12 transfectants
Description: (§1) A selection of hits were subcloned using the MoFlo (Beckman, Indianapolis, Ind., US) by depositing a single cell per well into 96 well cell culture plates to ensure clonality of the cell line. Resulting colonies were screened for specificity by FACS using mouse 3T12 fibroblast cell lines expressing the human B7-H3, cynomolgous B7-H3 or mouse B7-H3. Isotype of each monoclonal antibody was determined using the Mouse Monoclonal Isostyping Kit (Roche, No. 11-493-027-001, Indianapolis, Ind., USA).

| Binder | EC50 [nM] |
| --- | --- |
| B1 | 6.71 |
| B2 | 4.46 |
| B3 | 1.42 |
| B4 | 1.5 |
| B5 | 4.12 |
| B6 | 4.28 |
| B7 | 1.53 |
| B8 | 2.97 |
| B9 | 1.91 |
| B10 | 2.03 |

Biological target: T3, Mouse B7-H3 on cells
Experiment: FACS, 3T12 transfectants
Description: as §1

| Binder | EC50 [nM] | binding result |
| --- | --- | --- |
| B1 | 8.72 |  |
| B2 | 3.8 |  |
| B3 | 0.94 |  |
| B4 | 1 |  |
| B5 | 25.8 |  |
| B6 | 319 |  |
| B7 |  | no binding |
| B8 | 102 |  |
| B9 | 6.01 |  |
| B10 | 569 |  |

Biological target: T4, Human full length B7-H3
Experiment: FACS, 3T12 transfectants
Description: as §1

| Binder | EC50 [nM] |
| --- | --- |
| B1 | 3.88 |
| B2 | 3.97 |
| B3 | 1.66 |
| B4 | 1.7 |
| B5 | 1.94 |
| B6 | 3.94 |
| B7 | 1.59 |
| B8 | 3.03 |
| B9 | 2.71 |
| B10 | 23.4 |
